For the series, the target named is T1, beta-lactoglobulin (bovine, UniProt P02754 17-178).
T1 sequence: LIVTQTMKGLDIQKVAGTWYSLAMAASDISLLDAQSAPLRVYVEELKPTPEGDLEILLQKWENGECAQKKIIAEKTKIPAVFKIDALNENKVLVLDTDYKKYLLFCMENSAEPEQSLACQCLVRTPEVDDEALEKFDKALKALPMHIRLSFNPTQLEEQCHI
Put plainly: non-faradaic capacitive aptasensor; CDI-Cu nanoflower/LSG microgap; linear 1 ag/ml-100 fg/ml, LOD 1 ag/ml; Sensor: 10 mM PBS pH 7.4, target incubated 10 min; aptamer folded in 1 mM MgCl2, 10 mM PBS (90 °C 5 min); ELASA: coating at 4 °C overnight, 2% BSA block, PBS washes. To be noted: protein: commercial; chain copies: 2; label: biotin; 3' A tail of aptamer paired with T20 oligolinker; aptamer part single-stranded.

B1: beta-lactoglobulin aptamer with 3' A tail, annealed to biotinylated T20 oligolinker (mixed)
DNA 1: ATACCAGCTTATTCAATTCGACGATCGGACCGCAGTACCCACCCACCAGCCCCAACATCATGCCCATCCGTGTGTGAGATAGTAAGTGCAATCTAAAAAAAAAAAAAAAAAAAAAAAA
DNA 2: TTTTTTTTTTTTTTTTTTTT
modifications: 5' biotin (5Biosg) on oligolinker S1
Take B1: the binding result was “binds”.

The values above are taken from article PMC8531451, “1,1'-Carbonyldiimidazole-copper nanoflower enhanced collapsible laser scribed graphene engraved microgap capacitive aptasensor for the detection of milk allergen”.
